Where two headings read alike, the source gives them in different places.

For data set [1], the target named is T1, NS5B(Δ21)-FlAsH-His (RNA-dependent RNA polymerase) (Hepatitis C virus genotype 2a, UniProt Q99IB8 2443-3012). Briefly: EMSA.
Data set [2] concerns the target T1, NS5B(Δ21)-FlAsH-His (RNA-dependent RNA …). Briefly: EMSA. The source holds these as a separate data set. (In general: A gel shift assay detects complexes by their altered migration in electrophoresis.)

B1: 5'UTR RNA (ssRNA)
RNA: AUACUAACGCCAUGGCUAGGCGCUUUCUGCGUGAAGACAGUAGUUCCUCACAGGGGAGUGAUUCAUGGCGGAGUGUCGCCCCU
In the case of B1, the binding result in data set [1] is “binds”.

B2: Synthetic RNA (structured_RNA)
RNA: AGGGUUUUUUUUUUUAUUAUUUAUUCUUUAUUUUUCUUGCGUAGUUUUCUACG
B2: in data set [2], the binding result is “binds”.

These data come from paper doi:10.1101/2025.09.08.674988.
